Laboratory results published in patent US7795390B2, “Biological substance nesfatin and its related substances and uses thereof” (Teijin Pharma Limited, priority 2005, dated 2010).

How the values were obtained:
Wistar rats = test: Administration of nesfatin-1, nesfatin-2, nesfatin-3, nesfatin-2/3 into the third ventricle, amount of food intake; assay type: in vivo, rat
Description: Samples used for intracerebral administration were PBS alone (vehicle group), or nesfatin-1, nesfatin-2, nesfatin-3 or nesfatin-2/3 prepared in Working Example 10 each dissolved in PBS, and 25 pmol was administered per individual into the third ventricle immediately before the dark period. Rats used were Wistar rats (purchased from Nippon SLC) and were housed as in Working Example 6, and among 8-9 week-old male Wistar rats, those individuals weighing 200-250 g were selected and used (N=5). The technique of intraventricular administration and the measurement of the amount of food intake in rats were carried out in a method similar to those in Working Example 6. In the measurement of the amount of food intake, the reduced amount of food at 1 hour after administration (0-1 hr) and 2 hours after administration (1-3 hrs) was determined as food intake.
In the same condition above, 1, 5 or 25 pmol of nesfatin-1 as a sample was administered per rat individual into the third ventricle immediately before the dark period. In this experiment, the amount of food intake was determined at 1 hour after administration (0-1 hr).
The experimental condition was similar to that in Working Example 12, and 5 pmol of nesfatin-1 was administered into the third ventricle of the rat brain immediately before the start of the dark period, the amount decreased of the food (the amount of food intake) during 1 hour immediately after administration (0-1 hr), during 2 hours from 1 hour after the administration (1-3 hr), during 3 hours from 3 hours after the administration (3-6 hr), and during 6 hours from 6 hours after the administration (6-12 hr) was measured as the amount of food intake. As the control group, the amount of food intake by individuals that received physiological saline alone was measured.
The experimental condition was similar to that in Working Example 12, and for a group that received 5 pmol of nesfatin-1 alone into the third ventricle of the rat brain immediately before the start of the dark period and a group that received 5 pmol of nesfatin-1 and 8 μg of anti-nesfatin-1 antibody (nesfatin-1 IgG), the amount of food intake for 1 hour after administration was measured and compared to that for the control group (physiological saline alone was administered). Also, for a group that received only leptin (Rat leptin: R & D Systems, 598-LP-01M) (1 μg) which is known to have an activity of suppressing food intake by intraventricular administration and a group that received leptin and anti-nesfatin-1 antibody, its effect on food intake was also studied.

Agouti-yellow mice = test: Intraperitoneal administration of nesfatin-1 to Agouti-yellow mice, food intake; assay type: in vivo, mouse; settings: nesfatin-1 (10 pmol) ip, 0-3 hours
Description: In the experiment on the animal model of obesity, C57BL/6J mice were used as the control group and Agouti-yellow mice were used as the animal model of obesity, and these animals were purchased from Nippon Charles River (Jackson Lab.). The housing condition and the week age of the mice used were similar to those for the ICR mice, whereas individuals weighing 25-28 g for the control group mice and individuals weighing 31-38 g for the Agouti-yellow mice were selected and used. […] Other conditions were similar to those in the above.
(§1) Each mouse that received administration was placed in an individual cage, and during 0-3 hours after the administration the weight decreased of the pellet food was measured to determine the amount of food intake. For testing of significant difference, analysis of variance was used.

mice = test: Intraperitoneal and subcutaneous administration of nesfatin-1 to mice, food intake; assay type: in vivo, mouse
Description: (§2) The sample used in the administration was the recombinant mouse nesfatin-1 prepared in Working Example 16 dissolved in 200 μl of physiological saline so as to contain 10 nmol, and as the control sample, physiological saline (Saline) alone was used. Using a tuberculin syringe equipped with a 25G needle, 200 μl each of the samples was administered once into the abdominal cavity or the hypodermis of the back of each mouse, and the time of administration was immediately before the start (6 p.m.) of the dark period. Other conditions were similar to those in Working Example 18.

C57BL/6J mice = test: Intraperitoneal administration of nesfatin-1 to c57BL/6J mice, food intake and blood biochemical parameters; assay type: in vivo; settings: recombinant mouse nesfatin-1 10 nmol ip; 0-3 hours; vs saline
Description: As experimental animals, 7 week-old male c57BL/6J mice were purchased from Nippon Clea, and were housed in a cycle of 12 hours of the light period from 6 a.m. to 6 p.m. and […] of the dark period from 6 p.m. to 6 a.m. the next morning and were allowed free access to a pellet food (Nippon Clea, CE-2), and kept at 22° C.
Into the abdominal cavity of the c57BL/6J mice, 10 nmol of recombinant mouse nesfatin-1 prepared in Working Example 16 dissolved in 100 μl of physiological saline was administered, and as the control sample physiological saline alone was used. Using a tuberculin syringe equipped with a 26G needle, 100 μl each of the sample was administered once into the abdominal cavity of each mouse (5 animals per group), and the time of administration was immediately before the start (6 p.m.) of the dark period.
Each mouse that received administration was placed in an individual cage, and during 0-3 hours after the administration the weight decreased of the pellet food was measured to determine the amount of food intake. Also, 3 hours after the administration each mouse was sacrificed by decapitation to collect whole blood, and serum was collected therefrom. For the serum, the contents of glucose, total cholesterol and triglyceride were measured using commercial reagents for determination (KYOWA MEDEX, Determiner L GLUII, Determiner L TCII, Determiner L TGII).

ICR mice = test: Intraperitoneal administration of nesfatin-1 to ICR mice, food intake; assay type: in vivo, mouse; settings: 0-3 hours
Description: The experimental animal was 7 week-old male ICR mice purchased from Japan SLC, Inc., and were housed after purchase in a cycle of 12 hours of the light period from 6 a.m. to 6 p.m. and 12 hours of the dark period from 6 p.m. to 6 a.m. the next morning with free access to a pellet food (Nippon Clea, CE-2), kept at 22° C., and housing was continued in a similar condition during the experiment period. The mice purchased were subjected to preliminary housing for over one week, individuals weighing 35-40 g were selected among 8 to 9 week-old individuals and were used in the experiment.
as §2, with “contain 2 nmol,” for “contain”, “10 nmol or 50” for “10”, “sample” for “samples”, “cavity” for “cavity or the hypodermis of the back”, “mouse (5 animals per group),” for “mouse,”, “period.” for “period. Other conditions were similar to those in Working Example 18.”
as §1

B1: nesfatin-1: 82-residue peptide, amino acid Nos. 25 to 106 of nesfatin (SEQ ID NO: 15), solid-phase synthesis (peptide, listed as Rattus norvegicus)
chain: VPIDVDKTKVHNVEPVESARIEPPDTGLYYDEYLKQVIEVLETDPHFREKLQKADIEEIRSGRLSQELDLVSHKVRTRLDEL
- amount of food intake (Wistar rats; 5 pmol into the third ventricle, 0-1 hr, 1-3 hr and 3-6 hr, p<0.01 vs control): Significant decreases in the amount of food intake
- amount of food intake (Wistar rats; 5 pmol into the third ventricle, 6-12 hr, p<0.01 vs control): an increase in the amount of food intake
- amount of food intake (Wistar rats; 5 pmol or 25 pmol intraventricular, 0-1 hr): significant decreased amount of food intake
- amount of food intake (Wistar rats; 25 pmol into the third ventricle before dark period, 0-1 hr and 1-3 hr, vs control): marked effect on the suppression of feeding
- amount of food intake (Wistar rats; 1, 5 or 25 pmol per rat intraventricular, 0-1 hr, vs saline): decreased amount of food intake, with the increased amount of the administered nesfatin-1
- amount of food intake (Agouti-yellow mice): significantly decreased
- amount of food intake (mice; 10 nmol intraperitoneally (ip), 0-3 hours, P<0.05 vs saline): statistically significant decrease
- amount of food intake (mice; 10 nmol intraperitoneally (ip), 0-14 hours): the decrease in the amount of food intake was not significant
- amount of food intake (mice; 10 nmol subcutaneously (sc), 0-3 hours): tended to decrease
- amount of food intake (mice; 10 nmol subcutaneously (sc), 0-14 hours, P<0.005 vs saline): the decrease was significant
- amount of food intake (C57BL/6J mice): significantly reduced
- amount of food intake (ICR mice; recombinant mouse nesfatin-1 2 nmol per mouse ip, vs Saline): decreases in the amount of food intake
- amount of food intake (ICR mice; recombinant mouse nesfatin-1 10 nmol per mouse ip, p<0.05): statistically significant decreases in the amount of food intake
- amount of food intake (ICR mice; recombinant mouse nesfatin-1 50 nmol per mouse ip, p<0.005): statistically significant decreases in the amount of food intake
